The text below walks through data of patent US20220125845A1 (GUANGDONG TCRCURE BIOPHARMA TECHNOLOGY, published 2022).

The target of assay [1] is ALPP on ALPP-positive SiHa cervical cancer cells (UniProt P05187). Description: cell-based or functional assay.
Assay [2] has as its target T1, ALPP on ALPP-positive SiHa cervical cancer cells (UniProt P05187 23-506, limits assumed).
T1 construct: whole, on cells; SiHa cells (ATCC) are called ALPP-positive cervical cancer cells, and ALPP is the target meant; SiHa is a human line; also called PLAP; SiHa cells
Description: flow cytometry on SiHa cells, AF488 goat anti-mouse IgG (Fcγ specific) secondary. The procedure:
(§1) 0.2×10⁶ SiHa cells were incubated with serially diluted anti-ALPP antibodies as described herein. Afterward, an AF488 goat anti-human secondary antibody or an AF488 goat anti-mouse IgG (Fcγ fragment specific) was used to stain the cells. Then, the fluorescently stained cells were detected by flow cytometry. Binding curves and calculated EC₅₀ values are shown in FIG. 10B and the table below, respectively.
On the technique in general: In flow cytometry, cells or beads pass a laser one at a time.

Assay [3] concerns the target T2, ALPP antigen (alkaline phosphatase, placental), coated on ELISA plates (UniProt P05187 23-506, limits assumed).
T2 construct: 125 ng ALPP antigen was coated per plate/well; the general description concerns human ALPP; also called PLAP; placental alkaline phosphatase
The assay is described as follows: ELISA, plate coated with 125 ng ALPP antigen, biotin goat anti-mouse Fc and streptavidin-HRP, OD450. How it is done:
(§2) Enzyme-linked immunosorbent assay (ELISA) plates were coated with 125 ng ALPP antigen. After blocking the plates, serial dilutions of anti-ALPP antibodies including A02 (H17E2), A04, A05, A06, A07, A08, A09, or a chimeric antibody were added to corresponding wells. Then, a Biotin-SP-AffiniPure goat anti-human antibody was added to wells containing the humanized antibodies A04, A05, A06, A07, A08, A09, or the chimeric antibody. Meanwhile, a Biotin-SP-AffiniPure goat anti-mouse Fc antibody was added to wells containing the mouse antibody H17E2. Next, HRP-conjugated streptavidin was used for biotin detection. Final detection was accomplished by assessing OD450 after 3,3′,5,5′-Tetramethylbenzidine (TMB) substrate was added. Binding curves and calculated EC₅₀ values are shown in FIG. 10A and the table below, respectively.
For orientation: An ELISA detects its analyte on a solid surface through an enzyme-linked reagent.

The target in assay [4] is T1, ALPP on ALPP-positive SiHa cervical …. The assay is described as follows: flow cytometry on SiHa cells, AF488 goat anti-human secondary. How it is done: as §1
The target in assay [5] is T2, ALPP antigen (alkaline phosphatase, …). The assay is described as follows: ELISA, plate coated with 125 ng ALPP antigen, biotin goat anti-human and streptavidin-HRP, OD450. The procedure:
as §2

T1 sequence (P05187 23-506 limits assumed): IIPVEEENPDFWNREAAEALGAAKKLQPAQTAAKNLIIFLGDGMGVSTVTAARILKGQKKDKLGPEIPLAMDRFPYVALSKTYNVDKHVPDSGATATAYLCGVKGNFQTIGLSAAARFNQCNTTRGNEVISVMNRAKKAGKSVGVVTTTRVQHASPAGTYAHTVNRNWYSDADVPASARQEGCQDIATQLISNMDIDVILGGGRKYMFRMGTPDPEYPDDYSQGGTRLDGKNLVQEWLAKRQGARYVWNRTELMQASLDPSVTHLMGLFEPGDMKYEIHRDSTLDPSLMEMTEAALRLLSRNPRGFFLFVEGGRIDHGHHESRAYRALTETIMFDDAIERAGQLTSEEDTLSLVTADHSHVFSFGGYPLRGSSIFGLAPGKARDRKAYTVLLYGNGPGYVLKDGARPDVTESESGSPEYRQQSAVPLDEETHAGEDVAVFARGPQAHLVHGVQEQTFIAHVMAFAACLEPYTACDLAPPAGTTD
T2 sequence (P05187 23-506 limits assumed): as above
Chain of ALPP on ALPP-positive SiHa cervical cancer cells (UniProt P05187) (P05187 23-506 limits assumed): as above

In assay [1], “A02 CAR (murine H17E2 scFv, CD8 hinge and transmembrane region, 4-1BB, CD3 zeta)” gave a CD69 expression in CD3+ Jurkat cells (percent activated), overnight co-culture with SiHa cells of 70 to 80%.

B1: parent mouse anti-ALPP antibody H17E2 (antibody, V domains shown)
VH: QVQLKESGPGLVAPSQSLSITCTVSGFSLTSYGVSWVRQPPRKGLEWLGVIWEDGSTNYHSALISRLSINKDNSKSQVFLKLNSLQTDDTATYYCAKPHYGSSYVGAMEYWGQGTSVTVSS
VL: DIQMTQSPASLTASVGETVTITCRASENIYSYVAWYQQKQGKSPQFLVYNAKSLAEGVPSRFSGSGSGTQFSLKINSLQPEDFGNYYCQHHYVSPWTFGGGTKLEIK
notes: Mouse monoclonal antibody, detected with goat anti-mouse Fc secondary antibodies; also called A02; A02 antibody
As for B1, the values for the EC50 in assay [2] and in assay [3] were 0.211 µg/mL and 0.0108 µg/mL, respectively.

B2: humanized anti-ALPP antibody A05 (antibody, V domains shown)
VH: QVQLKESGPGLVAPSQTLSLTCTVSGFSLTSYGVSWIRQPPGKGLEWIGVIWEDGSTNYHSALISRVSISVDTSKSQFSLKLSSVDAADTAVYYCARPHYGSSYVGAMEYWGQGTTVTVSS
VL: DIQMTQSPSSLSASVGDRVTITCRASENIYSYVAWYQQKPGKAPKFLIYNAKSLAEGVPSRFSGSGSGTDFTLTISSLQPEDFANYYCQHHYVSPWTFGQGTKVEIK
notes: Detected with a goat anti-human secondary antibody; also called A05Ab
Consider B2, for which the EC50 (in general, the concentration that produces a half-maximal response) amounted to 0.225 µg/mL in assay [4] and 0.00491 µg/mL in assay [5].

B3: humanized anti-ALPP antibody A06 (antibody, V domains shown)
VH: QVQLKESGPGLVAPSQTLSLTCTVSGFSLTSYGVSWIRQPPGKGLEWIGVIWEDGSTNYHSALISRVSISVDTSKSQFSLKLSSVDAADTAVYYCAKPHYGSSYVGAMEYWGQGTTVTVSS
VL: DIQMTQSPSSLSASVGDRVTITCRASENIYSYVAWYQQKPGKAPKLLIYNAKSLAEGVPSRFSGSGSGTDFTLTISSLQPEDFANYYCQHHYVSPWTFGQGTKVEIK
notes: Detected with a goat anti-human secondary antibody; also called A06Ab
Regarding B3, the 50% effective concentration (EC50) is 0.257 µg/mL in assay [4] and 0.0037 µg/mL in assay [5].

B4: humanized anti-ALPP antibody A04 (antibody, V domains shown)
VH: QVQLQESGPGLVAPSQTLSLTCTVSGFSLTSYGVSWIRQPPGKGLEWIGVIWEDGSTNYHSALISRVSISVDTSKSQFSLKLSSVDAADTAVYYCARPHYGSSYVGAMEYWGQGTTVTVSS
VL: DIQMTQSPSSLSASVGDRVTITCRASENIYSYVAWYQQKPGKAPKFLIYNAKSLAEGVPSRFSGSGSGTDFTLTISSLQPEDFANYYCQHHYVSPWTFGQGTKVEIK
notes: Detected with a goat anti-human secondary antibody; also called A04Ab
Consider B4, for which the EC50 is 0.286 µg/mL in assay [4] and 0.00589 µg/mL in assay [5].

B5: humanized anti-ALPP antibody A07 (antibody, V domains shown)
VH: QVQLKESGPGLVAPSQTLSLTCTVSGFSLTSYGVSWIRQPPGKGLEWIGVIWEDGSTNYHSALISRVSISVDTSKSQFSLKLSSVDAADTAVYYCAKPHYGSSYVGAMEYWGQGTTVTVSS
VL: DIQMTQSPSSLSASVGDRVTITCRASENIYSYVAWYQQKPGKAPKFLIYNAKSLAEGVPSRFSGSGSGTDFTLTISSLQPEDFANYYCQHHYVSPWTFGQGTKVEIK
notes: Detected with a goat anti-human secondary antibody; also called A07Ab
Take B5: the EC50 in assay [4] was found to be 0.302 µg/mL; in assay [5] it was 0.00534 µg/mL.

B6: humanized anti-ALPP antibody A08 (antibody, V domains shown)
VH: QVQLQESGPGLVKPSQTLSLTCTVSGFSLTSYGVSWIRQPPGKGLEWIGVIWEDGSTNYHSALISRVSISVDTSKSQFSLKLSSVDAADTAVYYCARPHYGSSYVGAMEYWGQGTTVTVSS
VL: DIQMTQSPSSLSASVGDRVTITCRASENIYSYVAWYQQKPGKAPKFLIYNAKSLAEGVPSRFSGSGSGTDFTLTISSLQPEDFANYYCQHHYVSPWTFGQGTKVEIK
notes: Detected with a goat anti-human secondary antibody; also called A08Ab
For B6, the EC50 in assay [4] amounted to 0.233 µg/mL; in assay [5] it was 0.00481 µg/mL.
